Laboratory results taken from US20210388087A1 (Chugai, published 2021).

Target: T1, CD3 epsilon homodimer protein (UniProt P07766 23-126)
T1 construct: also called CD3 (CD3 epsilon)
Assay: SPR Biacore T200, CD3e homodimer on chip, vs unaltered GLS3000 antibody
Experimental: An appropriate amount of CD3 epsilon homodimer protein was immobilized onto Sensor chip CM4 (GE Healthcare Japan Corp.) by the amine coupling method. Then, the antibody having an appropriate concentration was injected thereto as an analyte and allowed to interact with the CD3 epsilon homodimer protein on the sensor chip. Then, the sensor chip was regenerated by the injection of 10 mmol/L glycine-HCl (pH 1.5). The assay was conducted at 25 degrees C., and HBS-EP+(GE Healthcare Japan Corp.) was used as a running buffer. […] Each parameter was calculated using Biacore T200 Evaluation Software (GE Healthcare Japan Corp.).

T1 sequence (P07766 23-126): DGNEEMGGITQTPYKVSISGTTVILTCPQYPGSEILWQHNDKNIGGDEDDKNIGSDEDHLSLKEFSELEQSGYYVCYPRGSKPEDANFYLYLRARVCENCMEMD

Binder	ratio of amounts bound (Z=Y/X)
GLS3000 L33F (antibody, name in Kabat numbering, V domains shown, one-arm IgG as m2) VH: QVQLVESGGGVVQPGRSLRLSCAASGFTFSNAWMHWVRQAPGKGLEWVAQIKAKSNNYATYYAESVKGRFTISRDDSKNSLYLQMNSLKTEDTAVYYCRYVHYGAYYGVDAWGQGTTVTVSS VL: DIVMTQSPLSLPVTPGEPASISCRSSQSLVHSNRNTYFHWYQQKPGQAPRLLIYKVSNRFSGVPDRFSGSGSGTDFTLKISRVEAEDVGVYYCGQGTQVPYTFGQGTKLEIK	0.78
GLS3000 L33D (antibody, name in Kabat numbering, V domains shown, one-arm IgG as m2) VH: QVQLVESGGGVVQPGRSLRLSCAASGFTFSNAWMHWVRQAPGKGLEWVAQIKAKSNNYATYYAESVKGRFTISRDDSKNSLYLQMNSLKTEDTAVYYCRYVHYGAYYGVDAWGQGTTVTVSS VL: DIVMTQSPLSLPVTPGEPASISCRSSQSLVHSNRNTYDHWYQQKPGQAPRLLIYKVSNRFSGVPDRFSGSGSGTDFTLKISRVEAEDVGVYYCGQGTQVPYTFGQGTKLEIK	0.17
GLS3000 L33V (antibody, name in Kabat numbering, V domains shown, one-arm IgG as m2) VH: QVQLVESGGGVVQPGRSLRLSCAASGFTFSNAWMHWVRQAPGKGLEWVAQIKAKSNNYATYYAESVKGRFTISRDDSKNSLYLQMNSLKTEDTAVYYCRYVHYGAYYGVDAWGQGTTVTVSS VL: DIVMTQSPLSLPVTPGEPASISCRSSQSLVHSNRNTYVHWYQQKPGQAPRLLIYKVSNRFSGVPDRFSGSGSGTDFTLKISRVEAEDVGVYYCGQGTQVPYTFGQGTKLEIK	1.05
GLS3000 L33I (antibody, name in Kabat numbering, V domains shown, one-arm IgG as m2) VH: QVQLVESGGGVVQPGRSLRLSCAASGFTFSNAWMHWVRQAPGKGLEWVAQIKAKSNNYATYYAESVKGRFTISRDDSKNSLYLQMNSLKTEDTAVYYCRYVHYGAYYGVDAWGQGTTVTVSS VL: DIVMTQSPLSLPVTPGEPASISCRSSQSLVHSNRNTYIHWYQQKPGQAPRLLIYKVSNRFSGVPDRFSGSGSGTDFTLKISRVEAEDVGVYYCGQGTQVPYTFGQGTKLEIK	0.83

Further lines, results first:

ratio of amounts bound (Z=Y/X)	Binder
0.85	GLS3000 L33A (antibody, name in Kabat numbering, V domains shown, one-arm IgG as m2) VH: QVQLVESGGGVVQPGRSLRLSCAASGFTFSNAWMHWVRQAPGKGLEWVAQIKAKSNNYATYYAESVKGRFTISRDDSKNSLYLQMNSLKTEDTAVYYCRYVHYGAYYGVDAWGQGTTVTVSS VL: DIVMTQSPLSLPVTPGEPASISCRSSQSLVHSNRNTYAHWYQQKPGQAPRLLIYKVSNRFSGVPDRFSGSGSGTDFTLKISRVEAEDVGVYYCGQGTQVPYTFGQGTKLEIK
0.93	GLS3000 L33M (antibody, name in Kabat numbering, V domains shown, one-arm IgG as m2) VH: QVQLVESGGGVVQPGRSLRLSCAASGFTFSNAWMHWVRQAPGKGLEWVAQIKAKSNNYATYYAESVKGRFTISRDDSKNSLYLQMNSLKTEDTAVYYCRYVHYGAYYGVDAWGQGTTVTVSS VL: DIVMTQSPLSLPVTPGEPASISCRSSQSLVHSNRNTYMHWYQQKPGQAPRLLIYKVSNRFSGVPDRFSGSGSGTDFTLKISRVEAEDVGVYYCGQGTQVPYTFGQGTKLEIK
0.72	GLS3000 L33E (antibody, name in Kabat numbering, V domains shown, one-arm IgG as m2) VH: QVQLVESGGGVVQPGRSLRLSCAASGFTFSNAWMHWVRQAPGKGLEWVAQIKAKSNNYATYYAESVKGRFTISRDDSKNSLYLQMNSLKTEDTAVYYCRYVHYGAYYGVDAWGQGTTVTVSS VL: DIVMTQSPLSLPVTPGEPASISCRSSQSLVHSNRNTYEHWYQQKPGQAPRLLIYKVSNRFSGVPDRFSGSGSGTDFTLKISRVEAEDVGVYYCGQGTQVPYTFGQGTKLEIK
0.3	GLS3000 L33P (antibody, name in Kabat numbering, V domains shown, one-arm IgG as m2) VH: QVQLVESGGGVVQPGRSLRLSCAASGFTFSNAWMHWVRQAPGKGLEWVAQIKAKSNNYATYYAESVKGRFTISRDDSKNSLYLQMNSLKTEDTAVYYCRYVHYGAYYGVDAWGQGTTVTVSS VL: DIVMTQSPLSLPVTPGEPASISCRSSQSLVHSNRNTYPHWYQQKPGQAPRLLIYKVSNRFSGVPDRFSGSGSGTDFTLKISRVEAEDVGVYYCGQGTQVPYTFGQGTKLEIK
